In patent publication US20250188186A1:

What was measured:
[1] = target: GST-tagged human FcRn-β2m (human) (UniProt P55899); assay: ELISA, antibody immobilized, FcRn titrated (the concentration is that of FcRn), anti-FLAG-HRP, pH 6.0 [pH 6.0]
[2] = target: FcγRIIIa allele V158 on NK-92 effector cells (human) (UniProt P08637); assay: cell-based or functional assay
[3] = target: human FcγRIIIa F158 ectodomain, N-terminal AVI and C-terminal His tags (human) (UniProt P08637); assay: BLI, antibody on FAB2G tips, FcγRIIIa F158 in solution, pH 6.5, kinetic Kd
human FcγRIIIa F158 ectodomain, N-terminal AVI and C-terminal His tags (human), sequence (P08637 17-208): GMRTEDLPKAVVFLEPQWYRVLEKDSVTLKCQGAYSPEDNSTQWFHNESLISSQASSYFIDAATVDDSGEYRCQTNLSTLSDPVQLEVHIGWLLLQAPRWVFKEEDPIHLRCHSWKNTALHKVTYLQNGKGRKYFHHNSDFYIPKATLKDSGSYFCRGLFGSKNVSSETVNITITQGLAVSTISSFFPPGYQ

[4] = target: human FcγRIIIa F158 ectodomain, N-terminal AVI and C-terminal His tags (human) (UniProt P08637); assay: BLI, antibody on FAB2G tips, FcγRIIIa F158 in solution, pH 7.4, kinetic Kd
[5] = target: human FcγRIIb ectodomain, N-terminal AVI and C-terminal His tags (human) (UniProt P31994); assay: BLI, antibody on FAB2G tips, FcγRIIb in solution, pH 6.5, steady-state Kd,SS
human FcγRIIb ectodomain, N-terminal AVI and C-terminal His tags (human), sequence (P31994 43-217): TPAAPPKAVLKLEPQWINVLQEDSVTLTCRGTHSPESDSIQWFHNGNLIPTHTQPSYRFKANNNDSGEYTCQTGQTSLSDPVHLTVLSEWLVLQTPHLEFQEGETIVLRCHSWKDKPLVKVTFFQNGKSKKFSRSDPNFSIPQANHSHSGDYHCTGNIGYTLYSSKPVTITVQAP

[6] = target: human FcγRIIb ectodomain, N-terminal AVI and C-terminal His tags (human) (UniProt P31994); assay: BLI, antibody on FAB2G tips, FcγRIIb in solution, pH 7.4, steady-state Kd,SS
[7] = target: human FcγRIIa H131 ectodomain, N-terminal AVI and C-terminal His tags (human) (UniProt P12318); assay: BLI, antibody on FAB2G tips, FcγRIIa H131 in solution, pH 6.5, steady-state Kd,SS
human FcγRIIa H131 ectodomain, N-terminal AVI and C-terminal His tags (human), sequence (P12318 34-217): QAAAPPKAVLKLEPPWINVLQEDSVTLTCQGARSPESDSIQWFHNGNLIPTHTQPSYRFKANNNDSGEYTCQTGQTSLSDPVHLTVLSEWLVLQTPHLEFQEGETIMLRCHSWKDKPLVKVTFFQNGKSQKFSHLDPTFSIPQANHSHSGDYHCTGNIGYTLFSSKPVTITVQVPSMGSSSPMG

[8] = target: human FcγRIIa H131 ectodomain, N-terminal AVI and C-terminal His tags (human) (UniProt P12318); assay: BLI, antibody on FAB2G tips, FcγRIIa H131 in solution, pH 7.4, steady-state Kd,SS
[9] = target: human FcγRIIa R131 ectodomain, N-terminal AVI and C-terminal His tags (human) (UniProt P12318); assay: BLI, antibody on FAB2G tips, FcγRIIa R131 in solution, pH 6.5, steady-state Kd,SS
human FcγRIIa R131 ectodomain, N-terminal AVI and C-terminal His tags (human), sequence (P12318 34-217 H167R): as the sequence (P12318 34-217) above, with H134R counted along it

[10] = target: human FcγRIIa R131 ectodomain, N-terminal AVI and C-terminal His tags (human) (UniProt P12318); assay: BLI, antibody on FAB2G tips, FcγRIIa R131 in solution, pH 7.4, steady-state Kd,SS
[11] = target: human FcγRIIIa F158 ectodomain, N-terminal AVI and C-terminal His tags (human) (UniProt P08637); assay: BLI, antibody on FAB2G tips, FcγRIIIa F158 in solution, pH 6.5, steady-state Kd,SS (Langmuir fit)
[12] = target: human FcγRIIIa F158 ectodomain, N-terminal AVI and C-terminal His tags (human) (UniProt P08637); assay: BLI, antibody on FAB2G tips, FcγRIIIa F158 in solution, pH 7.4, steady-state Kd,SS (Langmuir fit)

FcγRIIIa allele V158 on NK-92 effector cells (human), sequence (P08637 17-254 F176V): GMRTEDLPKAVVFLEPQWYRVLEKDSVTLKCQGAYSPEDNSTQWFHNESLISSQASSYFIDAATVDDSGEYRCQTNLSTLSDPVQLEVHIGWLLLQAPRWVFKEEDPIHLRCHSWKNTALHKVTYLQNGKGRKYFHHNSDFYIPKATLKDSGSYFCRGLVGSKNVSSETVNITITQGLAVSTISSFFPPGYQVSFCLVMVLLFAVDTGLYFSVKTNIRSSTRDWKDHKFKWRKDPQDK

| EC50 (read off the curve) [1] [µg/mL] | ADCC EC50, SKBR3 target cells, NK-92 (V158) effector cells, pH 6.5 [2] [ng/mL] | ADCC EC50, SKBR3 target cells, NK-92 (V158) effector cells, pH 7.4 [2] [ng/mL] | ADCC: lysis of calcein-loaded SKOV3 target cells, 50 ng/mL antibody, E:T 10:1, 4 h, pH 6.5 [2] [%] | ADCC: lysis of calcein-loaded SKOV3 target cells, 50 ng/mL antibody, E:T 10:1, 4 h, pH 7.4 [2] [%] | Kd [3] [nM] | Kd [4] [nM] | Kd [5] [nM] | Kd [6] [nM] | Kd [7] [nM] | Kd [8] [nM] | Kd [9] [nM] | Kd [10] [nM] | Kd [11] [nM] | Kd [12] [nM] | Substance |
| --- | --- | --- | --- | --- | --- | --- | --- | --- | --- | --- | --- | --- | --- | --- | --- |
| 0.01 |  |  |  |  |  |  |  |  |  |  |  |  |  |  | hu4D5 antibody with M252Y/S254T/T256E (YTE) Fc |
|  | 121 | 2310 | 47.6 | 19.5 | 538 | 909 | 112 | 109 | 331 | 497 | 37.1 | 37.1 | 603 | 1090 | hu4D5 antibody with acid-Fc (S267E, H268D, Y296H) |
